Assay [1] addresses T1, hCD112R mFC recombinant protein (human; murine, UniProt Q6DKI7 41-160).
T1 construct: range 41-160; expressed in 293E cells; also called hCD112R ECD mFC; hCD112R-ECD-mFC; not shown: murine IgG2a Fc domain (MX2-mFc vector)
T1 sequence (looked up): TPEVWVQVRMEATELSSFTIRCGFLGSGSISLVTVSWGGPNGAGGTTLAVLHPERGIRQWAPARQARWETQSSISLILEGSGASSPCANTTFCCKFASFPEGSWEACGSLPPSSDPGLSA
Briefly: FACS competition, hCD112R mFc on CHO CD112 cells. Put shortly:
(§1)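 CHO cells overexpressing human CD112 were co-incubated 30 min at 4 °C with hCD112R mFc (5 μg/mL) and humanized anti-CD112R antibodies (from 100 μg/mL, 3-fold, 10 points). Bound fusion protein detected with anti-mouse IgG Fc secondary by flow cytometry; IC50 from four-parameter fit of MFI. COM701 served as positive control, anti-KLH hu-IgG4 as negative.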

For assay [2], the target named is T2, human CD112R on Jurkat CD112R effector cells (human, UniProt Q6DKI7 1-326).
T2 sequence (looked up): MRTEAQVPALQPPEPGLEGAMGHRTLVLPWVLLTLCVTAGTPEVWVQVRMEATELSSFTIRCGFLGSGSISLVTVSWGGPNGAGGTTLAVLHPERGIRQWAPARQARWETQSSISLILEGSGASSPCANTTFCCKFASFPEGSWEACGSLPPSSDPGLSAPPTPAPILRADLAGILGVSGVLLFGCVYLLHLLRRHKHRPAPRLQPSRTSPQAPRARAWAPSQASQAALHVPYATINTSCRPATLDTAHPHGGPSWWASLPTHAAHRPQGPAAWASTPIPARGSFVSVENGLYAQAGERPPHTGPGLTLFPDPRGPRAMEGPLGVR
The assay is described as follows: cell-based or functional assay.

Assay [3] addresses T1, hCD112R mFC recombinant protein. Briefly: ELISA, coated hCD112R-ECD-mFC. The essentials: (§2)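 Plates coated with hCD112R-ECD-mFC at 1.5 μg/mL; humanized antibodies titrated from 1 μg/mL, 2.5-fold, 12 points. Bound antibody detected with HRP anti-human IgG Fc and TMB, read at 420/620 nm; EC50 from 4PL fit, COM701 and anti-KLH hu-IgG4 as controls.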
The target is the same in assay [4]. The assay is described as follows: ELISA, coated hCD112R-ECD-mFC; EC50 COM701/EC50 antibody. Put shortly: as §2
For assay [5] the target is unchanged. The assay is described as follows: FACS competition, hCD112R mFc on CHO CD112 cells; IC50 COM701/IC50 antibody. The essentials:
as §1

B1: Hu28 (antibody, IgG4, V domains shown)
VH: EVQLVESGGGLVQPGGSLRLSCAASGFTFSSYHMSWVRQAPGKGLELVAAISRDGDSTYYPDTVKGRFTISRDNAKNSLYLQMNSLRAEDTAVYYCSRHEDYFGFAMDSWGQGTLVTVSS
VL: DIVMTQSPDSLAVSLGERATINCKASQSVSNDVAWYQQKPGQPPKLLIYYVSHRFTGVPDRFSGSGSGTDFTLTISSLQAEDVAVYFCHQAYRSPWTFGQGTKLEIK
notes: humanized IgG4
Regarding B1, the 50% inhibitory concentration (IC50) in assay [1] came to 2.27 µg/mL. Also, in assay [2], the “EC50, CD112R/CD112 reporter” value worked out at 0.0306 µg/mL and the “Relative activity (%), EC50 COM701/EC50 antibody” value was found to be 232%. For the same molecule, the EC50 in assay [3] was determined as 0.00479 µg/mL. The “Relative activity (%)” value in assay [4] came out at 127%. Besides, the “Relative activity (%)” value in assay [5] was found to be 157%.

B2: Hu33 (antibody, IgG4, V domains shown)
VH: EVQLVESGGGLVQPGGSLRLSCAASGFTFSSYHMSWVRQAPGKGLELVAAISRDGDSTYYPDTVKGRFTISRDDAENSLYLQMNSLRAEDTAVYYCSRHEDYFGFAMDSWGQGTLVTVSS
VL: EIVMTQSPPTLSLSPGERVTLSCKASQSVSNDVAWYQEKPGQAPRLLIYYVSHRFTGIPARFSGSGSGTDFTLTISSLQPEDFAVYYCHQAYRSPWTFGQGTKLEIK
notes: humanized IgG4
As to B2, the concentration for half-maximal inhibition (IC50) in assay [1] amounted to 2.48 µg/mL. Besides, in assay [2], the “EC50, CD112R/CD112 reporter” value amounted to 0.0341 µg/mL and the “Relative activity (%), EC50 COM701/EC50 antibody” value worked out at 157%. In addition, the EC50 in assay [3] was found to be 0.00348 µg/mL. In assay [4], the “Relative activity (%)” value is 174%. In assay [5], the “Relative activity (%)” value came out at 144%.

B3: Hu34 (antibody, IgG4, V domains shown)
VH: EVQLVESGGGLVQPGGSLRLSCAASGFTFSSYHMSWVRQAPGKGLELVAAISRDGDSTYYPDTVKGRFTISRDDAENSLYLQMNSLRAEDTAVYYCSRHEDYFGFAMDSWGQGTLVTVSS
VL: DIVMTQSPDSLAVSLGERATINCKASQSVSNDVAWYQQKPGQPPKLLIYYVSHRFTGVPDRFSGSGSGTDFTLTISSLQAEDVAVYFCHQAYRSPWTFGQGTKLEIK
notes: humanized IgG4
Consider B3, for which, in assay [1], the IC50 stood at 2.4 µg/mL. Further, in assay [2], the “EC50, CD112R/CD112 reporter” value came to 0.0336 µg/mL and the “Relative activity (%), EC50 COM701/EC50 antibody” value turned out to be 160%. For the same molecule, the concentration for a half-maximal effect (EC50) in assay [3] worked out at 0.00368 µg/mL. The “Relative activity (%)” value in assay [4] is 162%. The “Relative activity (%)” value in assay [5] is 149%.

B4: Hu23 (antibody, IgG4, V domains shown)
VH: EVQLVESGGGLVKPGGSLRLSCAASGFTFSSYHMSWVRQAPGKGLELVSAISRDGDSTYYPDTVKGRFTISRDDAENSLYLQMNSLRAEDTAVYYCSRHEDYFGFAMDSWGQGTLVTVSS
VL: DIQMTQSPSSLSASVGDRVTITCKASQSVSNDVAWYQQKPGKAPKLLIYYVSNRFTGVPSRFSGSGSGTDFTLTISSLQPEDFATYFCQQAYRSPWTFGQGTKLEIK
notes: humanized IgG4
Consider B4, for which, in assay [1], the IC50 is 2.53 µg/mL. In assay [2], the “EC50, CD112R/CD112 reporter” value is 0.0374 µg/mL. Further, the “Relative activity (%), EC50 COM701/EC50 antibody” value in assay [2] was 217%. Besides, in assay [3], the half-maximal effective concentration (EC50) came to 0.00436 µg/mL. Moreover, the “Relative activity (%)” value in assay [4] amounted to 153%; in assay [5], 141%.

B5: Hu24 (antibody, IgG4, V domains shown)
VH: EVQLVESGGGLVKPGGSLRLSCAASGFTFSSYHMSWVRQAPGKGLELVSAISRDGDSTYYPDTVKGRFTISRDDAENSLYLQMNSLRAEDTAVYYCSRHEDYFGFAMDSWGQGTLVTVSS
VL: EIVMTQSPPTLSLSPGERVTLSCKASQSVSNDVAWYQQKPGQAPRLLIYYVSNRFTGIPARFSGSGSGTDFTLTISSLQPEDFAVYFCQQAYRSPWTFGQGTKLEIK
notes: humanized IgG4
On to B5, for which, in assay [1], the IC50 was 2.89 µg/mL. Also, the “EC50, CD112R/CD112 reporter” value in assay [2] was determined as 0.0485 µg/mL. In addition, in assay [2], the “Relative activity (%), EC50 COM701/EC50 antibody” value was 167%. In assay [3], the concentration giving a half-maximal response (EC50) was determined as 0.00429 µg/mL. Besides, the “Relative activity (%)” value in assay [4] was 155%; in assay [5], 124%.

B6: Hu29 (antibody, IgG4, V domains shown)
VH: EVQLVESGGGLVQPGGSLRLSCAASGFTFSSYHMSWVRQAPGKGLELVAAISRDGDSTYYPDTVKGRFTISRDNAKNSLYLQMNSLRAEDTAVYYCSRHEDYFGFAMDSWGQGTLVTVSS
VL: DIQMTQSPSSLSASVGDRVTITCKASQSVSNDVAWYQQKPGKAPKLLIYYVSNRFTGVPSRFSGSGSGTDFTLTISSLQPEDFATYFCQQAYRSPWTFGQGTKLEIK
notes: humanized IgG4
Take B6: the concentration for half-maximal inhibition (IC50) in assay [1] was 3.67 µg/mL. Moreover, in assay [2], the “EC50, CD112R/CD112 reporter” value worked out at 0.0272 µg/mL and the “Relative activity (%), EC50 COM701/EC50 antibody” value is 230%. Also, the EC50 in assay [3] worked out at 0.00413 µg/mL. Besides, the “Relative activity (%)” value in assay [4] stood at 147%. In addition, the “Relative activity (%)” value in assay [5] was found to be 97%.

B7: Hu36 (antibody, IgG4, V domains shown)
VH: EVQLVESGGGLVQPGGSLRLSCAASGFTFSSYHMSWVRQAPGKGLELVAAISRDGDSTYYPDTVKGRFTISRDDAENSLYLQMNSLRAEDTAVYYCSRHEDYFGFAMDSWGQGTLVTVSS
VL: EIVMTQSPPTLSLSPGERVTLSCKASQSVSNDVAWYQQKPGQAPRLLIYYVSNRFTGIPARFSGSGSGTDFTLTISSLQPEDFAVYFCQQAYRSPWTFGQGTKLEIK
notes: humanized IgG4
For B7, in assay [1], the IC50 is 2.44 µg/mL. Besides, the “EC50, CD112R/CD112 reporter” value in assay [2] is 0.0356 µg/mL. Besides, the “Relative activity (%), EC50 COM701/EC50 antibody” value in assay [2] turned out to be 160%. Besides, the EC50 in assay [3] worked out at 0.0042 µg/mL. Besides, the “Relative activity (%)” value in assay [4] was 142%; in assay [5], 146%.

B8: Hu30 (antibody, IgG4, V domains shown)
VH: EVQLVESGGGLVQPGGSLRLSCAASGFTFSSYHMSWVRQAPGKGLELVAAISRDGDSTYYPDTVKGRFTISRDNAKNSLYLQMNSLRAEDTAVYYCSRHEDYFGFAMDSWGQGTLVTVSS
VL: EIVMTQSPPTLSLSPGERVTLSCKASQSVSNDVAWYQQKPGQAPRLLIYYVSNRFTGIPARFSGSGSGTDFTLTISSLQPEDFAVYFCQQAYRSPWTFGQGTKLEIK
notes: humanized IgG4
On to B8, for which the IC50 in assay [1] turned out to be 2.37 µg/mL. In assay [2], the “EC50, CD112R/CD112 reporter” value was determined as 0.034 µg/mL and the “Relative activity (%), EC50 COM701/EC50 antibody” value is 184%. Also, the EC50 in assay [3] was determined as 0.00396 µg/mL. In assay [4], the “Relative activity (%)” value was determined as 153%. Besides, the “Relative activity (%)” value in assay [5] came out at 151%.

B9: Hu17 (antibody, IgG4, V domains shown)
VH: EVQLVESGGGLVKPGGSLRLSCAASGFTFSSYHMSWVRQAPGKGLELVSAISRDGDSTYYPDTVKGRFTISRDNAKNSLYLQMNSLRAEDTAVYYCSRHEDYFGFAMDSWGQGTLVTVSS
VL: DIQMTQSPSSLSASVGDRVTITCKASQSVSNDVAWYQQKPGKAPKLLIYYVSNRFTGVPSRFSGSGSGTDFTLTISSLQPEDFATYFCQQAYRSPWTFGQGTKLEIK
notes: humanized IgG4
With B9, the 50% inhibitory concentration (IC50) in assay [1] was found to be 2.12 µg/mL. In addition, in assay [2], the “EC50, CD112R/CD112 reporter” value came to 0.0228 µg/mL and the “Relative activity (%), EC50 COM701/EC50 antibody” value was found to be 241%. Moreover, the concentration giving a half-maximal response (EC50) in assay [3] worked out at 0.00418 µg/mL. For the same molecule, the “Relative activity (%)” value in assay [4] stood at 136%. In assay [5], the “Relative activity (%)” value worked out at 169%.

B10: Hu35 (antibody, IgG4, V domains shown)
VH: EVQLVESGGGLVQPGGSLRLSCAASGFTFSSYHMSWVRQAPGKGLELVAAISRDGDSTYYPDTVKGRFTISRDDAENSLYLQMNSLRAEDTAVYYCSRHEDYFGFAMDSWGQGTLVTVSS
VL: DIQMTQSPSSLSASVGDRVTITCKASQSVSNDVAWYQQKPGKAPKLLIYYVSNRFTGVPSRFSGSGSGTDFTLTISSLQPEDFATYFCQQAYRSPWTFGQGTKLEIK
notes: humanized IgG4
Consider B10, for which, in assay [1], the IC50 was found to be 3.4 µg/mL. In assay [2], the “EC50, CD112R/CD112 reporter” value came to 0.031 µg/mL and the “Relative activity (%), EC50 COM701/EC50 antibody” value came out at 184%. The half-maximal effective concentration (EC50) in assay [3] came to 0.00439 µg/mL. In addition, the “Relative activity (%)” value in assay [4] stood at 136%. The “Relative activity (%)” value in assay [5] was determined as 105%.

Source of the values: patent US20240309087A1 (SHANGHAI JUNSHI BIOSCIENCES, published 2024).
